19 variants from the RNAGym collection of RNA variant scans (doi:10.1073/pnas.2313332121) can be followed below.

B1: TPR 5TU (parent)
chain: GGAUCUUCUCGAUCUAACAAAAAAGACAAAUCUGCCACAAAGCUUGAGAGCAUCUUCGGAUGCAGAGGCGGCAGCCUUCGGUGGCGCGAUAGCGCCAACGUUCUCAACUAUGACACGCAAAACGCGUGCUCCGUUGAAUGGAGUUUAUCAUG

This sample holds only a part of the variants without activity.

The data set covers variants of B1. As to the kind of experiment: polymerase ribozyme fitness, log enrichment relative to wild type (log ratio); higher = more active; in vitro selection for triplet polymerase activity. In outline:
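In triplicate, a single round of in vitro selection was run on each mutant library, PCR-built and transcribed, covering one subunit of a heterodimeric triplet polymerase ribozyme. Frozen incubation at −7 °C followed annealing with a biotinylated primer, partner subunit and triplets, and extended constructs were then gel-excised, streptavidin-captured and taken through RT-PCR. Fitness is the logarithm of genotype enrichment over wild-type enrichment, from inverse-variance-weighted replicate averages of Illumina-sequenced inputs and outputs. […] only genotypes with ≥10 input reads and ≥1 read per output were kept.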
For the variant GGAUCUUCUCGAUCUAACAAAAAAGACAAAUCUGCCACAAAGCUUGAGAGCAUCUUCGGAUGCAGAGGCGGCAGCCUUCGGUAGCGCGAUAGCGCCAACGUUCUCAACUAUGACACGCAAAACGCGUGCUCCGUUGAAUGGAGUUUCUCAUG [G83A A147C], the “polymerase ribozyme fitness (log ratio)” value is 0.0173.

Regarding GGAUCUUCUCGAUCUAACAAAAAAGACAAAUCUGCCACAAAGCUUGAGAGCAUCUUCGGAUGCAGAGGCGGCAGCCUUCGGUAGCGCGAUAGCGCCAACGUUCUCAACUAUGACUCGCAAAACGCGUGCUCCGUUGAAUGGAGUUUAUCAUG [G83A A115U], the “polymerase ribozyme fitness (log ratio)” value is -1.25.

As for GGAUCUUCUCGAUCUAACAAAAAAGACAAAUCUGCCACAAAGCUUGAGAGCAUCUUCGGAUGCAGAGGCGGCAGCCUUCGGUAGCGCGAUAGCGCCAACGUUCUCAACUAUGACACGCAAAACGCGUGCUCCGUUGAAUGGAGUUUAUCAUG [G83A], the “polymerase ribozyme fitness (log ratio)” value was -0.336.

As for GGAUCUUCUCGAUCUAACAAAAAAGACAAAUCUGCCACAAAGCUUGAGAGCAUCUUCGGAUGCAGAGGCGGCAGCCUUCGGUCGCGCGAUAGCGCCAACGUUCUCAACUAUGACACGCAAAACGCGUGCUCCGUUGAAUGGAGUUUAUCAUG [G83C], the “polymerase ribozyme fitness (log ratio)” value is -0.934.

In the case of GGAUCUUCUCGAUCUAACAAAAAAGACAAAUCUGCCACAAAGCUUGAGAGCAUCUUCGGAUGCAGAGGCGGCAGCCUUCGGUAGCGCGAUAUCGCCAACGUUCUCAACUAUGACACGGAAAACGCGUGCUCCGUUGAAUGGAGUUUAUCAUG [G83A G92U C118G], the “polymerase ribozyme fitness (log ratio)” value was -1.41.

Turning to GGAUCUUCUCGAUCUAACAAAAAAGACAAAUCUGCCACAAAGCUUGAGAGCAUCUUCGGAUGCAGAGGCGGCAGCCUUCGGUAGCGCGAUAGCGCCAACGUUCUCAAUUAUGACACGCAAAACGCGUGCUCCGUUGAAUGGAGUUUAUCAUG [G83A C108U], the “polymerase ribozyme fitness (log ratio)” value is -3.01.

Turning to GGAUCUUCUCGAUCUAACAAAAAAGACAAAUCUGCCACAAAGCUUGAGAGCAUCUUCGGAUGCAGAGGCGGCAGCCUUCGGUAGCGCGACAGCGCCAACGUUCUCAACUAUGACACGCAAAACGCGUGCUCCGUUGAAUGGAGUUUAUCAUG [G83A U90C], the “polymerase ribozyme fitness (log ratio)” value was -3.51.

In the case of GGAUCUUCUCGAUCUAACAAAAAAGACAAAUCUGCCACAAAGCUUGAGAGCAUCUUCGGAUGCAGAGGCGGCAGCCUUCGGUCGCGCGAUAGCGCCAACGUUCUCAACUGUGACACGCAAAACGCGUGCUCCGUUGAAUGGAGUUUAUCAUG [G83C A110G], the “polymerase ribozyme fitness (log ratio)” value is -3.65.

GGAUCUUCUCGAUCUAACAAAAAAGACAAAUCUGCCACAAAGCUUGAGAGCAUCUUCGGAUGCAGAGGCGGCAGCCUUCGGUAGCGCGAUAGCGCCAACGUUCUCAACUAUGACACGCAAAACGCGUGCUCCGUGGAAUGAAGUUUAUCAUG [G83A U135G G141A]: the “polymerase ribozyme fitness (log ratio)” value was -3.78.

Turning to GGAUCUUCUCGAUCUAACAAAAAAGACAAAUCUGCCACAAAGCUUGAGAGCAUCUUCGGAUGCAGAGGCGGCAGCCUUCGGUAGCGCGGUAGCGCCAACGUUCUCAACGAUGACACGCAAAACGCGUGCGCGGUUGAAUGGAGUUUAUCAUG [G83A A89G U109G U130G C132G], the “polymerase ribozyme fitness (log ratio)” value was not above -4.2.

With GGAUCUUCUCGAUCUAACAAAAAAGACAAAUCUGCCACAAAGCUUGAGAGCAUCUUCGGAUGCAGAGGCGGCAGCCUUCGGUAGCGCGAUAGCGCCAACGUUCUCAACUAUGACACGCAAAACGCGUGCUCCGUUGAAUGCAGUUUAUCAUG [G83A G141C], the “polymerase ribozyme fitness (log ratio)” value was -1.87.

Turning to GGAUCUUCUCGAUCUAACAAAAAAGACAAAUCUGCCACAAAGCUUGAGAGCAUCUUCGGAUGCAGAGGCGGCAGCCUUCGGUCGCGCGAUAGCGCCAGCGUUCUCAACUAUGACACGCAAAACGCGUGCUCCGUUGAAUGGAGUUUAUCAUG [G83C A98G], the “polymerase ribozyme fitness (log ratio)” value is -3.71.

For GGAUCUUCUCGAUCUAACAAAAAAGACAAAUCUGCCACAAAGCUUGAGAGCAUCUUCGGAUGCAGAGGCGGCAGCCUUCGGUAGCGCGAUAGCGCCAACGUUCUCAACUAUGACACGCAAAACGCGUGCUCGCUUGAAUGGAGUUUAUCAUG [G83A C132G G133C], the “polymerase ribozyme fitness (log ratio)” value was -2.67.

Turning to GGAUCUUCUCGAUCUAACAAAAAAGACAAAUCUGCCACAAAGCUUGAGAGCAUCUUCGGAUGCAGAGGCGGCAGCCUUCGGGGGCGUGAUAGCGCCAACGUUCUCAACUAUGACACGCAAAACGCGUGCUCCGUUGAAUGGAGUUUAUCAUG [U82G C87U], the “polymerase ribozyme fitness (log ratio)” value was -0.516.

GGAUCUUCUCGAUCUAACAAAAAAGACAAAUCUGCCACAAAGCUUGAGAGCAUCUUCGGAUGCAGAGGCGGCAGCCUUCGGUAGCGCGAUAGCGCCAACGUUCUCAAUUAUGACACGCAAAACGGGUGCUCCGUUGAAUGGAGUUUAUCAUG [G83A C108U C125G]: the “polymerase ribozyme fitness (log ratio)” value was -3.77.

For GGAUCUUCUCGAUCUAACAAAAAAGACAAAUCUGCCACAAAGCUUGAGAGCAUCUUCGGAUGCAGAGGCGGCAGCCUUCGGUAGCGCUAUAGCGCCAACGUUCUCAACUAGGACACGCAAAACGCGUGCUCCGUAGAAUGGAGUUUAUCAUG [G83A G88U U111G U135A], the “polymerase ribozyme fitness (log ratio)” value was not above -4.2.

For the variant GGAUCUUCUCGAUCUAACAAAAAAGACAAAUCUGCCACAAAGCUUGAGAGCAUCUUCGGAUGCAGAGGCGGCAGCCUUCGGUAGCGCGAUAGCGCCAACGUUCUCAACUAUGACACGCAAAACGCGUGCUCCGUUGAAUGGAGUUUAUCAGG [G83A U151G], the “polymerase ribozyme fitness (log ratio)” value is -3.97.

Turning to GGAUCUUCUCGAUCUAACAAAAAAGACAAAUCUGCCACAAAGCUUGAGAGCAUCUUCGGAUGCAGAGGCGGCAGCCUUCGGGGGCUCGAUAGCGCCAACGUGCUCAACUAUGACACGCAAAACGCGUGCGCCGUUGAAUGGAGUUUUUCAUG [U82G G86U U102G U130G A147U], the “polymerase ribozyme fitness (log ratio)” value is not above -4.2.

On to GGAUCUUCUCGAUCUAACAAAAAAGACAAAUCUGCCACAAAGCUUGAGAGCAUCUUCGGAUGCAGAGGCGGCAGCCUUCGGGGGCGCGAUAGUGCCAACGUUCUCAACUAUGACACGCAAAACGCGUGCUGCGUUGAAUUGAGUUAAUCAUG [U82G C93U C131G G140U U146A], for which the “polymerase ribozyme fitness (log ratio)” value was not above -4.2.
